The target in assay [1] is T1, secreted, soluble Kex2 (Saccharomyces cerevisiae, UniProt P13134 114-613, limits assumed).
T1 construct: Secreted, soluble construct; also called kexin
T1 sequence (looked up): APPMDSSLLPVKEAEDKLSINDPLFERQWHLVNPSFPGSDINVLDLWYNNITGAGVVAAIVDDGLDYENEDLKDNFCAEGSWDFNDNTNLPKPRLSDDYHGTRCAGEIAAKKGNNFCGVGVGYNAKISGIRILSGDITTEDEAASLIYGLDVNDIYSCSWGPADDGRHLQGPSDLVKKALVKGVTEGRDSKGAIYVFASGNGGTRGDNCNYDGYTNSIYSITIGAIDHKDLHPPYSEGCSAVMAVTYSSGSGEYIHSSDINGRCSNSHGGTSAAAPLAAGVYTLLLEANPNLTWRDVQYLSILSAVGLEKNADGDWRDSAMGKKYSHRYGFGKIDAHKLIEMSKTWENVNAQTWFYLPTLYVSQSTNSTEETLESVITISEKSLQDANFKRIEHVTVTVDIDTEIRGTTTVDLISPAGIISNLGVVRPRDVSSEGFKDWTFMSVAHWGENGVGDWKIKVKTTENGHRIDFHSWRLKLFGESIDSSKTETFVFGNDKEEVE
Kind of assay: affinity of purified variants, enzyme inhibition.

In assay [2] the target is T2, secreted, soluble furin (human, UniProt P09958 108-715, limits assumed).
T2 construct: Secreted, soluble construct; also called human furin
T2 sequence (P09958 108-715 limits assumed): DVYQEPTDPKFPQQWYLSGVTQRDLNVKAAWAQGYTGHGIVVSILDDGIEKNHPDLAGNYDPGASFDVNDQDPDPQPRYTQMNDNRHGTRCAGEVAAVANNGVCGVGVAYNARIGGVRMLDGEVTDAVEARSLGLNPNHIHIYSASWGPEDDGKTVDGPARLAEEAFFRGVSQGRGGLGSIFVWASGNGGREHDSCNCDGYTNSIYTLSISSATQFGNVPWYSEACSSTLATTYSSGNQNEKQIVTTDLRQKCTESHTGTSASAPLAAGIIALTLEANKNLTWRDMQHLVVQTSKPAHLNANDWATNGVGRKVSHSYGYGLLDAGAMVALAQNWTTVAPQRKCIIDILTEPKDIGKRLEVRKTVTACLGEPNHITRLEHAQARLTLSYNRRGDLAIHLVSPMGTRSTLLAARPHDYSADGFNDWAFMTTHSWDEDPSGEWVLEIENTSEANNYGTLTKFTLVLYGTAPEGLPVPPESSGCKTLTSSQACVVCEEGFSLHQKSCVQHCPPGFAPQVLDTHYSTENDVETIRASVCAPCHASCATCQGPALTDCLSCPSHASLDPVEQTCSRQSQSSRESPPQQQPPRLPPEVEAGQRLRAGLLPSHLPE
Put plainly: rapid furin inhibition assay; table lists substitutions with equal or enhanced inhibition of furin relative to the template. The protocol:
3. Rapid screening of libraries. Libraries were introduced into E. coli BL21 (DE3) cells and individual, cloned transformants were grown by shaking at 37° C. in 200 μl LB containing […] kanamycin in 96-well, 0.45 μm GHP membrane filter plates (Gelman) (FIG. 2). When O.D. 600 values reached 0.4, 60 μl of culture were transferred to secondary 96-well plates (Falcon), adjusted to 10% glycerol, and stored at −80° C. These frozen stocks served as master copies of the libraries. IPTG was added to the cultures to a final concentration of 1 mM, and the cultures were allowed to express eglin c variants for one hour in the filter plate. Expressed eglin c variants were extracted from the cells with 50 mM Tris-HCl pH 8.0 containing 2 mM EDTA following freezing and thawing. These extracts were collected as filtrates by centrifugation of the filter plate above a second plate. The filtrates, representing partially purified eglin c variants, were analyzed using a rapid fluorescence-based assay for processing enzyme inhibition as described below in Section 5. […] Frozen cells were cultured in 50 to 100 ml culture volumes, and DNA maxipreps were performed; the DNA preparations were then sequenced by automated DNA sequencing. Selected variants were expressed and purified on a larger scale, and affinities for furin or Kex2 were examined quantitatively (see below).
5. Rapid protease inhibition assay. Novel eglin variants were diluted 50-fold and incubated with secreted, soluble furin (0.5 nM) for 15 min in 96-well plates. The furin substrate (Boc-Arg-Val-Arg-Arg-MCA) was added, and release of AMC was monitored continuously in a 96-well fluorescence plate reader for 20 min, as described under Example 1. […] The plasmid DNA encoding such eglin c variant inhibitors were isolated and sequenced.

Assay [3] addresses T2, secreted, soluble furin. Kind of assay: enzyme inhibition, purified variant; Kassoc.
Assay [4] deals with T3, human PC7 (human, UniProt Q16549 142-667, limits assumed).
T3 sequence (looked up): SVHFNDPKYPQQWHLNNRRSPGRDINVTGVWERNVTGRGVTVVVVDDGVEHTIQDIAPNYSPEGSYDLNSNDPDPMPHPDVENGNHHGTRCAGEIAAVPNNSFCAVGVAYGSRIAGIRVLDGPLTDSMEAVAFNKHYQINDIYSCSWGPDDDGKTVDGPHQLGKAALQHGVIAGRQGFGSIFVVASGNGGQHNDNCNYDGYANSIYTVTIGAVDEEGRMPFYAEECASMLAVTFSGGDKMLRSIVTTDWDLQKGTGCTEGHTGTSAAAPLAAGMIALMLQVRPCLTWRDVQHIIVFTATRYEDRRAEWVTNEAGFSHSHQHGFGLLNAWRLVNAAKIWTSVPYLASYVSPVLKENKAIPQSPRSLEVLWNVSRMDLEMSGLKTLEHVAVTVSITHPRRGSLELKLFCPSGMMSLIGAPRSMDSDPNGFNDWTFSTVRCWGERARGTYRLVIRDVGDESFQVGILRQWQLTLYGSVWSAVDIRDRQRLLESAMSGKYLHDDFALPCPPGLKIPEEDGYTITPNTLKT
Put plainly: enzyme inhibition, purified variant; Kassoc.

Assay [5] has as its target T1, secreted, soluble Kex2. Put plainly: enzyme inhibition, purified variant; Kassoc.
The target of assay [6] is T2, secreted, soluble furin. Kind of assay: enzyme inhibition, purified variant. The protocol:
(§1) Affinities of eglin variants with secreted, soluble Kex2 (hereafter “Kex2”; Brenner, C. and Fuller, R. S. (1992) Proc. Natl. Acad. Sci. USA 89: 922-926) and secreted, soluble furin (hereafter, “furin”; Bravo, D. A. et al (1994) J. Biol. Chem. 269: 25830-25837; and Komiyama & Fuller (2000) Biochemistry 39: 15156-15165) were measured by incubating variants with the enzymes (˜0.5 to 2.0 nM) for 45 min to 1 h at 21° C. in one of two enzyme assay buffers. For Kex2, the buffer was 200 mM Bistris (pH 7.27) containing 1 mM CaCl₂ and 0.1% Triton X-100; and for furin, the buffer was 20 mM NaMES (pH 7.0) containing 1 mM CaCl₂ and 0.1% Triton X-100 for furin. 100 to 200 μL aliquots of reaction mixtures were transferred into triplicate wells of opaque 96 well plates (Costar), and residual enzyme activity was measured with an fmax fluorescence micro plate reader (Molecular Devices) by monitoring hydrolysis of a fluorogenic substrate Boc-Arg-Val-Arg-Arg-MCA. Data were graphically analyzed (KaleidaGraph) with an equation developed by Green and Work (1953). Site-directed mutagenesis at P2 and P6 of eglin c generated temporary inhibitors (Table 3) and exhausted possibility to improve affinity further with this approach.

In assay [7] the target is T1, secreted, soluble Kex2. Put plainly: enzyme inhibition, purified variant. The protocol:
as §1

Assay [8] has as its target T2, secreted, soluble furin. Put plainly: enzyme inhibition, purified variant. The source holds these as a separate data set.
In assay [9] the target is T3, human PC7. Kind of assay: enzyme inhibition, purified variant.
Assay [10] addresses T1, secreted, soluble Kex2. Kind of assay: enzyme inhibition, purified variant. The source holds these as a separate data set.
Assay [11] concerns the target T2, secreted, soluble furin. Put plainly: enzyme inhibition, fluorogenic substrate; * temporary inhibition. The protocol: as §1
The target of assay [12] is T1, secreted, soluble Kex2. The description is as above. The protocol: as §1
Assay [13] deals with T1, secreted, soluble Kex2. Put plainly: equilibrium enzyme inhibition, fluorogenic substrate. The protocol: as §1
Assay [14] addresses T2, secreted, soluble furin. The assay is described as above. The protocol:
as §1

For assay [15], the target named is T2, secreted, soluble furin. Put plainly: equilibrium enzyme inhibition. The protocol:
(§2) Thus, R1-eglin refers to substitution of Arg at position P1.
(§3) Affinities of eglin variants with secreted, soluble Kex2 (hereafter “Kex2”; Brenner, C. and Fuller, R. S. (1992) Proc. Natl. Acad. Sci. USA 89: 922-926) and secreted, soluble furin (hereafter, “furin”; Bravo, D. A. et al (1994) J. Biol. Chem. 269: 25830-25837; and Komiyama & Fuller (2000) Biochemistry 39: 15156-15165) were measured by incubating variants with the enzymes (˜0.5 to 2.0 nM) for 45 min to 1 h at 21° C. in one of two enzyme assay buffers. For Kex2, the buffer was 200 mM Bistris (pH 7.27) containing 1 mM CaCl₂ and 0.1% Triton X-100; and for furin, the buffer was 20 mM NaMES (pH 7.0) containing 1 mM CaCl₂ and 0.1% Triton X-100 for furin.

Assay [16] has as its target T1, secreted, soluble Kex2. Kind of assay: equilibrium enzyme inhibition. The protocol:
as §2, §3

For assay [17], the target named is T2, secreted, soluble furin. Put plainly: calculated from kon (progress curves) and Ka. The protocol:
In some aspects of the present invention, biological application of the eglin c variants of the present invention as inhibitors of processing in vivo depends upon the rate of binding to target enzymes, where it is critical. Therefore, the rate of action of eglin variants with Kex2 and furin was examined by incubating 5×10⁻¹⁰ M enzyme with inhibitor at molar ratios of inhibitor to enzyme ranging from 10 to 80. […] The relationship between kobs and inhibitor concentration was linear. The values of kₒₙ were determined from the slope of such curves, and dissociation rate constants (koff) were calculated (koff=kₒₙ/Kₐ). For R4R1-eglin, koff was calculated to be 2×10⁻⁴s⁻¹ for Kex2, and 3×10⁻⁴s⁻¹ for furin. […] Similarly, the t_{1/2} of the complex of M4R1-eglin with Kex2 was estimated to be 3 h. For complex of R4K1-eglin with furin, koff was calculated to be 2×10⁻⁴s⁻¹ implying that the koff and t_{1/2} for this complex are similar to those for the complex of R4R1-eglin with furin.

We go through nine molecules from patent US20050203007A1 (REGENTS OF THE UNIVERSITY OF MICHIGAN, published 2005).

B1: Glu39Pro-R4R1-eglin (designed binder)
chain: SMGSELKSFPEVVGKTVDQAREYFTLHYPQYDVYFLPPGSRVTRDLRYNRVRVFYNPGTNVVNHVPHVG
As to B1, the binding result was “binds” with secreted, soluble Kex2 [1] and “binds” in the assay with secreted, soluble furin [2].

B2: Tyr49Asp-R4R1-eglin (designed binder)
chain: SMGSELKSFPEVVGKTVDQAREYFTLHYPQYDVYFLPEGSRVTRDLRDNRVRVFYNPGTNVVNHVPHVG
notes: R4R1 template; N-terminal Met removed; also called Asp49-R4R1-eglin; Asp49-R4R1-
For orientation: Ki means the equilibrium dissociation constant of an inhibitor or competing ligand from its target. The low end stands for a stronger hold on the target, the high end for a looser hold on the target. In the case of B2, the Ka with secreted, soluble furin [3] is 3e+09 M⁻¹; with human PC7 [4], 5.6e+08 M⁻¹; in the assay with secreted, soluble Kex2 [5] it was 1.8e+10 M⁻¹. Further, the Ki with secreted, soluble furin [6] is 0.33 nM; in the assay with secreted, soluble Kex2 [7], 0.045 nM; with secreted, soluble furin [8], 0.3 nM; in the assay with human PC7 [9], 1.8 nM; in the assay with secreted, soluble Kex2 [10], 0.056 nM. In addition, the “Ki ratio (to R4R1- template)” value with secreted, soluble furin [6] amounted to 0.132; with secreted, soluble Kex2 [7] it was 0.05. The “fold enhanced affinity (relative to R4R1-eglin)” value in the assay with secreted, soluble furin [6] turned out to be 10 fold; in the assay with secreted, soluble Kex2 [7], 16 fold.

B3: M4K2R1-eglin (designed binder)
chain: SMGSELKSFPEVVGKTVDQAREYFTLHYPQYDVYFLPEGSMVKRDLRYNRVRVFYNPGTNVVNHVPHVG
notes: N-terminal Met removed
B3: the Ki worked out at 83 nM with secreted, soluble furin [11] and 0.59 nM with secreted, soluble Kex2 [12].

B4: K2R1-eglin (designed binder)
chain: SMGSELKSFPEVVGKTVDQAREYFTLHYPQYDVYFLPEGSPVKRDLRYNRVRVFYNPGTNVVNHVPHVG
notes: N-terminal Met removed
As to B4, the Ki in the assay with secreted, soluble furin [11] was 100 nM; in the assay with secreted, soluble Kex2 [12], 0.67 nM.

B5: Glu39Ser-R4R1-eglin (designed binder)
chain: SMGSELKSFPEVVGKTVDQAREYFTLHYPQYDVYFLPSGSRVTRDLRYNRVRVFYNPGTNVVNHVPHVG
Consider B5, for which the binding result with secreted, soluble Kex2 [1] is reported as “binds”; in the assay with secreted, soluble furin [2] it was “binds”.

B6: R6R4R1-eglin (designed binder)
chain: SMGSELKSFPEVVGKTVDQAREYFTLHYPQYDVYFLPERSRVTRDLRYNRVRVFYNPGTNVVNHVPHVG
notes: N-terminal Met removed; also called Gly40 Arg on R4R1-template
Regarding B6, the Ki was found to be 0.29 nM in the assay with secreted, soluble Kex2 [13] and 2 nM with secreted, soluble furin [11].

B7: R4K1-eglin (designed binder)
chain: SMGSELKSFPEVVGKTVDQAREYFTLHYPQYDVYFLPEGSRVTKDLRYNRVRVFYNPGTNVVNHVPHVG
notes: N-terminal Met removed; also called R4K1-template
By koff is commonly meant the rate constant with which the complex falls apart. With B7, the Ki came out at 38 nM in the assay with secreted, soluble furin [14]; 2.5 nM with secreted, soluble Kex2 [13]; 38 nM with secreted, soluble furin [6]; 2.5 nM with secreted, soluble Kex2 [7]. Moreover, in the assay with secreted, soluble furin [15], the “fold reduction of Ka relative to R4R1-eglin” value was 15.4 fold. For the same molecule, in the assay with secreted, soluble Kex2 [16], the “fold decrease of Ka relative to R4R1-eglin” value is 2.8 fold. In addition, the “fold higher affinity for Kex2 than for furin” value with secreted, soluble Kex2 [16] is around 20 fold. The “Ki ratio (to R4K1- template)” value in the assay with secreted, soluble furin [6] worked out at 1; with secreted, soluble Kex2 [7] it was 1. For the same molecule, the koff in the assay with secreted, soluble furin [17] is 0.0002 s⁻¹.

B8: R4K2R1-eglin (designed binder)
chain: SMGSELKSFPEVVGKTVDQAREYFTLHYPQYDVYFLPEGSRVKRDLRYNRVRVFYNPGTNVVNHVPHVG
notes: N-terminal Met removed
As for B8, the Ki is around 0.5 nM with secreted, soluble furin [11] and around 0.5 nM in the assay with secreted, soluble Kex2 [12].

B9: Glu39Tyr-R4R1-eglin (designed binder)
chain: SMGSELKSFPEVVGKTVDQAREYFTLHYPQYDVYFLPYGSRVTRDLRYNRVRVFYNPGTNVVNHVPHVG
In the case of B9, the binding result was “binds” with secreted, soluble Kex2 [1] and “binds” with secreted, soluble furin [2].
